Data on two molecules can be found in patent US20220041702A1 (Innovent, published 2022).

Test [1] addresses T1, GITR expressed on cell surface (CHO cells overexpressing GITR) (Homo sapiens (Human), UniProt Q9Y5U5 26-241).
T1 construct: also called GITR on cell surface
T1 sequence: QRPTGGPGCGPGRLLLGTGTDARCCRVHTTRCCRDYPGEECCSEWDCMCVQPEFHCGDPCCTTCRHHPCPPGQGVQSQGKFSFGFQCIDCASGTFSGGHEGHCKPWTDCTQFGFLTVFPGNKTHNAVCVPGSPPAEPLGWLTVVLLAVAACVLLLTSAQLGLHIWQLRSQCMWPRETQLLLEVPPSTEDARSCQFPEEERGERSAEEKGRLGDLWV
In words: FACS on CHO cells overexpressing GITR, PE-conjugated anti-human Fc detection.

A further test has as its target T2, human OX40-his (human, UniProt P43489 29-216).
T2 construct: Bought soluble protein
T2 sequence (looked up): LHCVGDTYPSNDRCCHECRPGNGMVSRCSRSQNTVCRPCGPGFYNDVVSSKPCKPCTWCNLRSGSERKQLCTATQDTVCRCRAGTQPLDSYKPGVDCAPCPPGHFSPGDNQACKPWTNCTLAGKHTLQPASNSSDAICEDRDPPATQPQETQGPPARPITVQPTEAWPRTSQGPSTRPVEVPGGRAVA
Nature of the test: ForteBio Octet BLI, antibody on AHC tip, human OX40-His 100 nM in solution, monovalent. On the procedure:
A ForteBio affinity assay was performed according to the method reported in the literature (Estep, P, et al., High throughput solution Based measurement of antibody-antigen affinity and epitope binning MAbs, 2013, 5(2): p. 270-278). Briefly, the AHC sensor (Pall, Catalog No.: 1506091) was immersed in a SD buffer (PBS 1×, BSA 0.1%, Tween 20 0.05%) and equilibrated at room temperature, half an hour before the experiment. […] The anti-human IgG Fc biosensor AHC was immersed in each well containing the antibody solution, and immersed at room temperature for 600 s to load the samples. The sensor was then washed in the SD buffer until it returned to the baseline, and then immersed in a well containing 100 μL of the antigen solution to monitor the binding of the antibody to the antigen. The sensor was then transferred to a well containing 100 μL of the SD buffer to monitor the antibody dissociation. The rotation speed was 400 rpm and the temperature was 30° C. The background-corrected association and dissociation curves were fitted by the Octet analysis software (ForteBio) to generate the binding rate constant (kₒₙ) and dissociation rate constant (kdis), which are then used to calculate the equilibrium dissociation constant (KD).

In test [2] the target is T3, human OX40 expressed on the surface of cells (CHO cells overexpressing human OX40) (human, UniProt P43489 29-277).
T3 construct: whole, on cells; also called CHO-OX40 cells; CHO cells overexpressing OX40
T3 sequence (looked up): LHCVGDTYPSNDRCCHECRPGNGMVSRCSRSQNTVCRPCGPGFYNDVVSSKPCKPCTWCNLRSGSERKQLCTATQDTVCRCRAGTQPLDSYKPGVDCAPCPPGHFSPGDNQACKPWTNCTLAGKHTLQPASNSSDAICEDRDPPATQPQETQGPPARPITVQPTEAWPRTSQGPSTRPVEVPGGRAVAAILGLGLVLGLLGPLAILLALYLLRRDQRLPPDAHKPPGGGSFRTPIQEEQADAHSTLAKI
In words: FACS on CHO-OX40 cells, PE anti-human Fc.

B1: IgG1 control antibody (antibody, V domains shown)
VH: EVRLLESGGGLVQPGGSLRLSCAASGFTFSNYAMGWVRQAPGKGLEWVSAISGSGGSTYYADSVKGRFTTSRDDSKNALYLQMNSLRAEDTAVYYCARGGPGWYAADVWGQGTTVTVSS
VL: DIQMTQSPSSLSASVGDRVTITCRASQSISSYLNWYQQKPGKAPKLLIYAASSLQSGVPSRFSGSGSGTDFTLTISSLQPEDFATYYCQQADLPAFAFGGGTKVEIKR
notes: Negative control; also called IgG1 negative control
For B1, the binding result in test [1] is reported as “no binding”.

B2: anti-OX40 antibody ADI-20112 (antibody, human IgG1, kappa, V domains shown)
VH: QVQLVESGGGVVQPGRSLRLSCAASGFTFSSYGMHWVRQAPGKGLEWVAVISYDGSNKYYADSVKGRFTISRDNSKNTLYLQMNSLRAEDTAVYYCARGRPWYSETGTSAFDIWGQGTMVTVSS
VL: DIQMTQSPSSLSASVGDRVTITCQASQDISNYLNWYQQKPGKAPKLLIYDASNLETGVPSRFSGSGSGTDFTFTISSLQPEDIATYYCQQSDHYPTFGGGTKVEIKR
notes: also called parent anti-OX40 antibody
In the test with human OX40-his, B2 came in with a Kd of 215 nM, a koff of 0.029 s⁻¹ and a kon of 135000 M⁻¹ s⁻¹. Moreover, a half-maximal response in test [2] (EC50) required 2.19 nM.
